B1: Simian Sapelovirus 1 (nucleic acid, listed as Sapelovirus sp.)
DNA: CCAAGGATCTGTTGCATAGGCGTTGTATCCCCTAACCTTTTACCTACCCATCCCAATAGGACTGGTATTTCGGTTTTGATTGAGTAATGGATACTGATTCTATACCTGTTACCCATTCAGGGGAAAAATGGAGTTTCTTTCATGGATCTGACTTGATATGACCAAGAGTCAACACTTTGCGTGTTGGCCGTATGGAATGCTTTAAGGTTTATTCTTTGGATTATGACTTCAGGGTTGGCCGCCCAGGATAAAAGGCAATTGTGGTAAGTGATGTTAGTCATTGGTGGTTGAAACCTGCCTAAGACGTCCTAGGTCTACGCTGTGCGGGCCGAAGTAAGCTTAGGAATAACAGGGAGTATGCCATTTTCTGCTTTCACCCAACACGACCGTACACGAAAGAGCTAGAGGCACTTTGGGGCAAAGGGAAAAGCTTTGCTTAGCCCGAATGTTCATTTGAGTCCTTGACGAATGCGTCCCGTCTGTCCCGACGGTGAGGCGTATGGCGCATGCTCATGGCATTACCCAATGGTGTATCTGTGAGGGGGGGGCTCCTCACACTTAGTCTAGTGCTACCTGACAGGGCCGCGGCTGGTCGTTTGTGTATGGTATAACCAGTAGTAATCCCCCATGGATTGCTTTAACTTCCCCTCCTCCCTTACCAAGACATTCTCTAAG
B2: Parabovirus B (nucleic acid)
DNA: AACCCATAATCCATTGTCCATCAATGTTTTATGGGGGGGACCCTTTCTCCCCTCCCCCTCCAAATACCTTTTACCCCTCTGTAACCAAGAGTGTGCAAAATCTATTTACTAGCCCAGAATTGCGGCTTCTGGGGAGGTTTATTCCTCATGCCTAACAAGATGTTACGCAAACTCCGGGCTACGGCCCTGGGCTTTTGCCCTAAAGATTTAGAAGTTTACACTATCGTCCAACAGGAGGACAACAAACCAGTTGTTCTAAGGACAAGCACTTCTGTTTCCCCGGTGAGACTGGATAGACTGTACCCACGGTTGAAACTGGTTGATCCGTTACCCGACTCACTACTTCGAGAAGATTAGTAGGAAACTGTGAAACTGATTCCATTGATCCGGATACTTTCCCCGTATCCAGAAACTACTGATGAGGGTTGACTTCCCGACTACGGCGACGTAGTGTCATCCCTGCGCTGGCAGTAGGCCTCTTTGAGGATGGAAGATGTGGATCGGTAACCGAAGGTCCTATTGAGCTAGTGTTTATACCTCCGGCCTCCTGAATGCGGCTAATCCTAACCCATGATCTAGTGCTCACAAACCAGTGAGTAGCTAGTCGTAACGCGTAAGTCGTGGGCGGAACCGACTACTTTGGAGTGACCGTGTTTCCTATTTTACTTTTGTTTG
modifications: Parabovirus B
B3: Simian Sapelovirus 2 (nucleic acid, listed as Sapelovirus sp.)
DNA: TTTTAACTTGTTATGACATTCAAGGAAAAAATGTCTTTTTCATTATGGGACTGACCTGTTTATGAACATGAGCAGCGGCACTGCTCCACGGGCTATCCGTGTAAGAAATATTGATTATTCTTATGGATCATGATTTCAGGGTTGGCCGCCCAGTCTAAAAGGCAATTGTGGTAAGCTATGTAAGTAGTTGGCTGTTGAAAGGAGCCAAGTACATCCTAGGTCTACGCTGTGCGGGCCGAAGTAAGACTTGGAACAACTCTGAGTAGGCAGTTTTTCTCTTTAGCCCAACACGACCGCATACTGAAGAGCTAGAGGCACTTTGGGGCAAAGGTAAAAGCATTGCTTAGACCGAATGTTCAATGAGACCTTGACGAGTGCTGTCACAGTGTCCCCTGATGGCAGTATGGCGCATGCTCTTGGCATTACCCATATGTGTATCTATAGGGGGGGGGCCCCCTATACTTAGTCTAGTGCTACCTGACAGGGCCGCGGCTGGTCGTCGGTGTGTGGTATAACCAGTAGTAATCCCCCATGGATTGCTTTAACTCCCCCTCCTCCCTCAACAAAACTTTCTCTAAG
B4: Parabovirus C (nucleic acid)
DNA: GATGTATCCCCATCCCCCAGTGTGTATGCCATACTGCATAGCTCGCCTATGCCCTATGGATTCACAACCCTTTCATATACCCTCCCTACCCAACCCCGTAACCACATGCTTTACTCCGCTTGGGGTTTTGCGGCCCCATGTTGTGACGAAATGGCTACGCAATCAATGCGGCTAATGGGGCCTGCCGCTTTTAAGTGGCCCCAGTTAGAAGTTTATGCACACCCGCCCATTAGGAGGCCACCAGCCAGGTGGTCAGAGGGCAAGCACTTCTGTTTCCCCGGTGAAGTTTGATAAGCTGTGCCCACGGCTGAAGCAGACAGATCCGTTACCCGCCTCACTACTACGAGACGGCTAGTAGTGTGTAATATCCGAATTTCATTGATCCGGGTGTTCCCCCCACCCAGAAACGTGTGATGAGGAGCGGCACCCCTCCTATGGCAACATAGGGCCTCTCCTGCGCTGGCACACGGGCTCTATGAGCATGAAATCAGGAGAAAGTCACACGAAGACCTTATTGTGCTAGTGTTGATTCCTCCGCCCCCCTGAATGCGGCTAATCCCAACTCCGGAGCGCCCGCTGGCAAACCCGCCAGAAGAGCGTCGTAATGCGTAAGTCTGGAGCGGAACCGACTACTTTGGGTGTGGCGTGTTTCCTTTATTTCCTTTGTATTTGTAT
modifications: Parabovirus C
B5: Rabovirus A NYC-B10 (nucleic acid)
DNA: CCGACCCCACTGGTCGAAGGCCACTTGGCAATAAGACTGGTGGAACAAGGTCGCCTGTAGTTGATTGGAACCTTCTTTCTAATGACTTATGTCAGCGGTGCTACTCACACCGTAACTCTCCTACCCTATCCCCACGCTTGTGGAACTAGGAGGGGATGAGTGATTCAAGTAAGTACTGTCAGAATGGTGAAAATAATCTGATTCTGAAACGCTATGGATCCATCGAAAGATGGGGCTACACGCCTGCGGAACAACACATGGTAACATGTGCCCCAGGGGCCGAAAGCCACGGTGATAGGATCACCCGTGTAGTTTGAGATCATATCAATGTTCATAGTCTAGTAAGATGATTTGAAATCTAACTGGTCTGATGGCTAACTGCTTGTCTTATTGCGGCCTAAGGATGTCCTGCAGGTACCTTTAGAGAACCTTAAGAGACTATTGATCTGAGCAGGAGCCAAGGTGGTCTTTCCCAGCCTTGGTTAAAAAGCGTCTAAGCCGCGGCAGGGGGCGGGAGGCCCCCTTTCCTCCCAAACTATAATATAGATTGT
modifications: Rabovirus A
B6: Parabovirus A3 (nucleic acid, listed as Parabovirus sp.)
DNA: ACCGTTACGCACCACTCAGTTGGTGTTTGGTGGCACCAATGATGGAACAAAAGGCTACACCACTTGGGCTACGGCCCGCGCCACCTTGTGGCGCAAAGACATTAGAAGAATAGCATACCGCCCACTAGGGCCCTGCAGCCAGCAGGGTAACGGGCAAGCACTTCTGTCTCCCCGGTAGAACGGTATAGGCTGTACCCACGGCCGAAAACTGAACTATCGTTACCCGACTCCGTACTTCGCAAAGCTTAGTAGGAAACTGGAAAGTTCGAGTTATTGACCCGGAGTGTTCCCCCCACTCCAGAAACGCGTGATGAGGGTTGCCACCCCGACCATGGCGACATGGTGGGCATCCCTGCGCTGGCACGCGGCCTCTAAGAGGATAACTCGCTCCTACTGGTAACCGAAGAGCCCCGTGAGCTACGGTTTATTCCTCCGCCTCCCTGAATGCGGCTAATCCTAACCCATGAGCAGTTGCCATAGATCCATATGGTGGACTGTCGTAACGCGTAAGTTGTGGGCGGAACCGACTACTTTGGGATGGCGTGTTTCCTTGTTTTCTCCATTTGTTGTTGTATGGTGACAAGTTATAGATCTCGATCTATAGCGTTTCTTGAGAGATTTCCAAACATTTATTCAAGTCGTACAATTCTTGTGTTTAAGCAGTACAGTGTAAGG
B7: Porcine Sapelovirus A2 (nucleic acid, listed as Sapelovirus sp.)
DNA: TTGAAATGGGTGTGGGGTACATGCGTATTACGGTACGCATATATTCCACACTCATTTCCCCCCCTCCACCCTTAAGGTGGTTGTATCCCCATACCTTACCCTCCCTTCTAAAACAGATGGACAAATGGATTTGAACTTATGGCAAGTGAATATGGTATGACTTTGGATACACTTTAACGGCAGTAGCGTGGCGAGCTATGGAAAAATCGCAATTGTCGATAGCCATGTTAGTGACGCGCTTCGGCGTGCTCCTTTGGTGATTCGGCGACTGGTTACAGGAGAGTAGGCAGTGAGCTATGGGCAAACCTCTACAGTATTACTTAGAGGGAATGTGCAATTGAGACTTGACGAGCGTCTCTTAGAGATGTGGCGCATGCTCTTGGCATTACCATAGTGAGCTTCCAGGTTGGGAAACCTGGACTGGGCCTATACTACCTGATAGGGTCGCGGCTGGCCGCCTGTAACTAGTATAGTCAGTTGAAACCCCCC
B8: Rabovirus C (nucleic acid)
DNA: CCGGGTATAACCCGGAGTTTTGGGGCAGGTCCAAGCCCCACATAGGAACATACGATCCACGGATCGTGTGTTCTTTTATGCTTTCTAACCTTACCCTTTGTAACCATTACGCTTTACGCCGCATGGTGTTTGGCGGCACCATGACGTGGACAAGAGGTTACGCCATTACGATATGTACCCTCCCCTTTTGGGGAGAGACCGACCAATTATGGTACAGTATCCAACTGTATTGTGGTCAAGTACTTCTGTTTCCCCGGTGATGCGGGATAGGCTGTACCCACGGCCAAAACCTGCTGATCCGTTACCCGACTCACATCTACGAGGAGGCTAGTAAAAGGCATGAAGTTCAAGAGTATGATCCAACCAGATCCCCACTGGTAAACTAGTGATGAGGGTTCCCGTTCCGAACATGGCAACATGTGGGTTCCCTGCGTTGGCACTAGGCCCCTTCCGAGGGGTGCTCTGAAGATGGATTGTTGATGAAGACCAATTTGTGCATGTGTTTATCCTCCGGCCCTCTGA
modifications: Rabovirus C
B9: Cadicivirus B (nucleic acid)
DNA: CACCAACCCTTGACCTGTAATGTCAGTGGACAGAGTGCTCCTCTGTTCCCGGTTACCGTGTTCCAGGACACGATTGTAATCCTGCGCCTCACCAGCGCTGCGTGCACGTCTGCATAAGGAAACGTGCCTTCCCCATGTCTCTATCAATTCTTTGGTGAGTGACCGCCCTAGTTGCTCATCCTATGGGATTCTTCTCTCATGGGTTCTTTGTGGCATGCGAATGTCACCTTAATTGGAGGTCTTTAATTAGATATCCTTTCTTCATCTTTGATATGAGTGTCGGAATTTGATTCCTAGTCTCTGCAAAACAACCCCACTTGATGAATTCAACTTTTCAACCGCACAAACATAATCAGGTTTTTAAATTGAATGTTTCTAAATTCTAAATTTAGTTTATTTAAGTAGTTTGCCATCTTGACTCGATGTAAAATTGTCATACAAGTCTTCTTTTCTTTTCTTTACACTTTGAAGTTTGCACTTAGCAGTCGTTCTGCACAGCTTTCGAGTTTTGTTTGATCGACATCGCAACTTCCACCCACCTCTCTTTTTCTAGTGTTGAATGCGGCTAATCCTAACCCGAGAGCAATAAACCCAGGTTTATTGTCGTAACGCGCAAGTCTTGGACGGAACCGACTATACACACACCTCTTTACCCTTTAGTACACCCTTGGTACG
modifications: Cadicivirus B

Each molecule was assayed on HEK293 cells. Settings: luminescence from secreted Gluc in supernatant 24 hours after transfection of HEK293 cells; circular RNA encoding Gluc with the named IRES (UTR truncated to 675 nt).
Format: cell-based, human

How did the Expression turn out when B1 was run?
The Expression was 6.55E+07.

For B2, which Expression is on record?
Its Expression is 7.85E+06.

Which Expression does the source give for B3 here?
Its Expression is 4.24E+07.

Which Expression does the source give for B4 here?
The Expression was 1.83E+07.

For B5, which Expression is on record?
Its Expression is 1.24E+06.

Which Expression does the source give for B6 here?
The Expression was 2.44E+08.

How did the Expression turn out when B7 was run?
Its Expression is 4.34E+06.

For B8, which Expression is on record?
The Expression was 2.49E+06.

B9 was tested. Which Expression did it give?
The Expression was 2.10E+05.

Source: patent US20230226096A1 (Orna Therapeutics, Inc., priority 2020, published 2023)
